The values below come from IntAct's records for PubMed 20129058.

B1: Replicative helicase loader DnaC (Escherichia coli (strain K12)), P0AEF0 (parent)
chain: MKNVGDLMQRLQKMMPAHIKPAFKTGEELLAWQKEQGAIRSAALERENRAMKMQRTFNRSGIRPLHQNCSFENYRVECEGQMNALSKARQYVEEFDGNIASFIFSGKPGTGKNHLAAAICNELLLRGKSVLIITVADIMSAMKDTFRNSGTSEEQLLNDLSNVDLLVIDEIGVQTESKYEKVIINQIVDRRSSSKRPTGMLTNSNMEEMTKLLGERVMDRMRLGNSLWVIFNWDSYRSRVTGKEY

The variants in the test derive from B1. The settings on record: with dnab_ecoli dnaB.
With MKNVGDLMQRQQKMMPAHIKPAFKTGEELLAWQKEQGAIRSAALERENRAMKMQRTFNRSGIRPLHQNCSFENYRVECEGQMNALSKARQYVEEFDGNIASFIFSGKPGTGKNHLAAAICNELLLRGKSVLIITVADIMSAMKDTFRNSGTSEEQLLNDLSNVDLLVIDEIGVQTESKYEKVIINQIVDRRSSSKRPTGMLTNSNMEEMTKLLGERVMDRMRLGNSLWVIFNWDSYRSRVTGKEY [L11Q], the “effect of a mutation on the interaction” value was “disrupting interaction”.
